Experiments:
Settings in all cases: protein: recombinant; tags: GFP-GST (N-term); label: Atto647N 5' on strand 1; blunt
[1] = target: T1, Rad54 D525S/D527S/S816D/S817D (Saccharomyces cerevisiae, UniProt P32863 1-898, D525S;D527S;S816D;S817D); test: EMSA; apparent Kd; Hill fit; 3 mM Mg2+; EMSA: 35 mM Tris-Cl pH 7.5, 3 mM MgCl2, 50 mM KCl, 1 mM DTT, 10% glycerol, 10 nM DNA, 30 C, 5 min, 8% native PAGE in 0.5x TBE; DNA curtains: HR buffer (composition not given), 10 nM GFP-Rad54, flow 0.2 mL/min
T1 sequence: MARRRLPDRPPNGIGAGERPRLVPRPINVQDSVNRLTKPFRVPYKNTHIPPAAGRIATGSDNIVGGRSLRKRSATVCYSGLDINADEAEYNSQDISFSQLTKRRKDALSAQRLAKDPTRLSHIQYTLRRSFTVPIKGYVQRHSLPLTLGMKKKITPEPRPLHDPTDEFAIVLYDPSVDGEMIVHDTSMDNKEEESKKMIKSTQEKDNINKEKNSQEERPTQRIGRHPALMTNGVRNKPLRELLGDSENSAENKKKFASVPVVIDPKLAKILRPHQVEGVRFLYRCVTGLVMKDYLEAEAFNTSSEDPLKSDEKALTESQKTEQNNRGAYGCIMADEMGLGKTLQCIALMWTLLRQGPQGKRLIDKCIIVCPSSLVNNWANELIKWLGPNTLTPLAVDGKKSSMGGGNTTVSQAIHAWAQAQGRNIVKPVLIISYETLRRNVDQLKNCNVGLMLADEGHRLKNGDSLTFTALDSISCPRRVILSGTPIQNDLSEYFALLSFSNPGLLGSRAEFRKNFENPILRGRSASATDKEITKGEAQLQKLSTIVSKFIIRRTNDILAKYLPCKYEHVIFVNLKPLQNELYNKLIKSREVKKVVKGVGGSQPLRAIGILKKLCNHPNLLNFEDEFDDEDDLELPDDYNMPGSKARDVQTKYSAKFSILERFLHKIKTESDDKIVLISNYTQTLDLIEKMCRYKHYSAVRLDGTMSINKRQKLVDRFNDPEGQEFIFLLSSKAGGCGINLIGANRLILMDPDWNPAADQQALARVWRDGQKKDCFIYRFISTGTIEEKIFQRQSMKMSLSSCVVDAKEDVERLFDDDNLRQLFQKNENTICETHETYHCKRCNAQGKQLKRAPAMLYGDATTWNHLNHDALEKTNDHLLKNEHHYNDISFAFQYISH

Rad54 S816D/S817D = target: T2, Rad54 S816D/S817D (Saccharomyces cerevisiae, UniProt P32863 1-898, S816D;S817D); test: EMSA; apparent Kd; Hill fit; 3 mM Mg2+; p = 0.008 vs WT; EMSA: 35 mM Tris-Cl pH 7.5, 3 mM MgCl2, 50 mM KCl, 1 mM DTT, 10% glycerol, 10 nM DNA, 30 C, 5 min, 8% native PAGE in 0.5x TBE; DNA curtains: HR buffer (composition not given), 10 nM GFP-Rad54, flow 0.2 mL/min
T2 sequence: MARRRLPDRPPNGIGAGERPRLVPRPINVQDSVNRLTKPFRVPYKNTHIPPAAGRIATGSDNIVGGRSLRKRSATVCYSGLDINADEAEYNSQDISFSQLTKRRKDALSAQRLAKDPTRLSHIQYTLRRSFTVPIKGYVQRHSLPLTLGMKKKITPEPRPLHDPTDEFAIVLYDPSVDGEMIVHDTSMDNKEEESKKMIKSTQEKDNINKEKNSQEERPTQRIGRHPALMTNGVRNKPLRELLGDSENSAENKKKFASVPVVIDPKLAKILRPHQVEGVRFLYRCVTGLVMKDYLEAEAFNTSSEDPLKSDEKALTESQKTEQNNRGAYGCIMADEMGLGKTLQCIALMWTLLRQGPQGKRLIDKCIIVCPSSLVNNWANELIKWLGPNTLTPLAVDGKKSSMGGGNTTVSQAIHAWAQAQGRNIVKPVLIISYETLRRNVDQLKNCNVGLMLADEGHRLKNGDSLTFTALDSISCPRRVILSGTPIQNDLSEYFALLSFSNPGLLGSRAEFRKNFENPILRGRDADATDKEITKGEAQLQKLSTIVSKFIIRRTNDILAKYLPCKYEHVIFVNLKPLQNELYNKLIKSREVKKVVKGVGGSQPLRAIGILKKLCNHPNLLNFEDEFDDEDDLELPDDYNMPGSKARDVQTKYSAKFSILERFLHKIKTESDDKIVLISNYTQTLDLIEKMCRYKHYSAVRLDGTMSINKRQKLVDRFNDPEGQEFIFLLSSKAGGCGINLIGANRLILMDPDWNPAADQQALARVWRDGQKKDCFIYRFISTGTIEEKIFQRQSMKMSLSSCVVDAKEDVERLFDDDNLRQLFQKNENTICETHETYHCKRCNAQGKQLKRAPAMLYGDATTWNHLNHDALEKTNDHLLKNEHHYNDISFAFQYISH

Rad54 S816A/S817A = target: T3, Rad54 S816A/S817A (Saccharomyces cerevisiae, UniProt P32863 1-898, S816A;S817A); test: EMSA; 3 mM Mg2+; Kd slightly above WT, not significant; value only in figure; EMSA: 35 mM Tris-Cl pH 7.5, 3 mM MgCl2, 50 mM KCl, 1 mM DTT, 10% glycerol, 10 nM DNA, 30 C, 5 min, 8% native PAGE in 0.5x TBE; DNA curtains: HR buffer (composition not given), 10 nM GFP-Rad54, flow 0.2 mL/min
T3 sequence: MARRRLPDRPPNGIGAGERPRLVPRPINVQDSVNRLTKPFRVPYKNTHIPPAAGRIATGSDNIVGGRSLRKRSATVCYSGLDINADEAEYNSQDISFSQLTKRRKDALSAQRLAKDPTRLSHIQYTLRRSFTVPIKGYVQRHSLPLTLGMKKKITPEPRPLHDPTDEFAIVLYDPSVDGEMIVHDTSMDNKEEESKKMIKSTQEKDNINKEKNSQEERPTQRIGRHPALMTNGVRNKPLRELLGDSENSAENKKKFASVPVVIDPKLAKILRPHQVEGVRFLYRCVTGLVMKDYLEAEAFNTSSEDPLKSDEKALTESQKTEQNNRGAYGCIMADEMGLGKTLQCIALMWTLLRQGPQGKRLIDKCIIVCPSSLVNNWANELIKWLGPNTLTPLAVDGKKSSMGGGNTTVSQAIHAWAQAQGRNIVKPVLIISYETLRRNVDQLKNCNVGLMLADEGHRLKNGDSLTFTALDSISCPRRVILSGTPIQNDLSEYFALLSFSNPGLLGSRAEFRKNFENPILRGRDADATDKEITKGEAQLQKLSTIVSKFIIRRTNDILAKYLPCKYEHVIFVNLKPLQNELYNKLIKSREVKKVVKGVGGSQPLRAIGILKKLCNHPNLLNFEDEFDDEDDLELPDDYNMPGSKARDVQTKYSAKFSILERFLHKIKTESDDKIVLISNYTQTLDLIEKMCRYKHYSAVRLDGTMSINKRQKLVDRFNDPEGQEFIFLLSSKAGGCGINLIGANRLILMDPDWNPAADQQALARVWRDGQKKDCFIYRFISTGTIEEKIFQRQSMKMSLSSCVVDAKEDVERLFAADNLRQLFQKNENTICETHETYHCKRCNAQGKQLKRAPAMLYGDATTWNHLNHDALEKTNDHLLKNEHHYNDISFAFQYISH

B1: 90 bp dsDNA (90-mer) (dsDNA)
DNA 1: GATGTTCTGCTGGATATGCACTTTTCCGGGCTGACGTACACCGTGCTCAGCCTGTTTTTCAGCGATCCGGATATGCATCCGCTGGATTTC
DNA 2: GAAATCCAGCGGATGCATATCCGGATCGCTGAAAAACAGGCTGAGCACGGTGTACGTCAGCCCGGAAAAGTGCATATCCAGCAGAACATC
[1]
  Kd: ~18 nM
Rad54 S816D/S817D
  Kd: 41 nM
Rad54 S816A/S817A
  binding result: binds

Source: PMC13138755, “Potential Rad54 separation of function mutation highlights unique roles during homologous recombination”
